Experimental data from the nanobody polyreactivity screen of Harvey et al. (2022).

Assay: yeast display, Sf9 membrane polyspecificity reagent, FACS + sequencing; frameworks hold sequencing errors
Summary of the method: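 Nanobodies came from a synthetic yeast display library in Saccharomyces cerevisiae BJ5465, induced with galactose for 36–48 hours and stained for 1 hour at 4 °C with 10% biotinylated, detergent-solubilized Sf9 membrane reagent. Cells were enriched on streptavidin microbeads and then FACS-sorted, with low and high (top ~1%) gates set on anti-HA fluorescence for expression and streptavidin fluorescence for reagent binding. Each polyreactivity label reflects the gate a clone came from. Genes were amplified by colony PCR, sequenced by MiSeq 2 × 250 and filtered by CDR length.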

Row | Sequence | polyreactivity (PSR sort gate)
1 | QVQLVESGGGLVQAGGSLRLSCAASGIIFVYYVMGWYRQAPGKERELVASIDGSGGSTNYADSVKGRFTISRDNAKNTVYLQMNSLKPEDTAVYYCNADNILYWSTLDYLGQGTQVTVSS | low polyreactivity
2 | QVQLVESGGGLVQAGGSLRLSCAASGIIFWDNAMGWYRQAPGKERELVASINYSGGSTYYADSVKGRFTISRDNAKNTVYLQMNSLKPEDTAVYYCAARTVTLDDWDYAYDYWGQGTQVTVSS | low polyreactivity
3 | QVQLVESGGGLVQAGGSLRLSCAASGIIFWDYAMGWSRQAPGKEREIVAAINTSGGTTTYADSVKGRFTISRDNAKNTVYLKMNSLKPEDTAVYYCAADTWGYYSYAYYYWGQGTQVTVSS | low polyreactivity
4 | QVQLVESGGGLVQAGGSLRLSCAASGIIFWFYAMGWYRQAPGKERELVAVISWNGDSTYYADSVKGRFTISRDNAKNTVYLQMNSLKPEDTEVYYCSAETYLGVYGSEYDYWGQGTQVTVSS | low polyreactivity
5 | QVQLVESGGGLVQAGGSLRLSCAASGIIFWLYTMGWYRQAPGKERELVAAITSGGSTYYADSVKGRFTISRDNAKNTVYLQMNSLKPEDTAVYDCAAVPRYRRWKYDYWGQGTQVTVSS | high polyreactivity
6 | QVQLVESGGGLVQAGGSLRLSCAASGIIFWQYAMGWYRQAPGKERELVAAISRSGGNTYYADSVKGRFTISRDNAKNTVYLQMNSLKPEDTAVYYCNARRYLRGYGYGYWGQGTQVTVSS | high polyreactivity
7 | QVQLVESGGGLVQAGGSLRLSCAASGIIFWYYAMGWYRQAPGKERELVAAISSGGSTTYADSVKGRFTISRDNAKNTVYLQMKSLKPEDTAVYYCAAVWLSLFKGWVDTHEYDYWGQGTQVTVSS | low polyreactivity
8 | QVQLVESGGGLVQAGGSLRLSCAASGIIFYDNAMGWYRQAPGKERALVAALTWTGSSTYYADSVKGRFTISRDNAKNTVYLQMNSLKPEDTAVSYCNARASYGHQGRLGYARLYYWGQGTQVTVSS | high polyreactivity
9 | QVQLVESGGGLVQAGGSLRLSCAASGIIFYDNAMGWYRQAPGKERELVATINYSGDSTYYADSVKGRFTISRDNAKNTVYLQMNSLKPADTAVYYCATDGAWQYYWVYSHEYWGQGTQVTVSS | low polyreactivity
10 | QVQLVESGGGLVQAGGSLRLSCAASGIIFYGNAMGWYRQAPGKERELVAAISWSGSSTYYADSVKGRFTISRDNAKNTVYLQMNSLKPEDTAVYYCAADIPYQFVRDVYYWGQGTQVTLSS | high polyreactivity
11 | QVQLVESGGGLVQAGGSLRLSCAASGIIFYGNAMGWYRQAPGKERELVARITGSDGRTYYADSVKGRFTISRDNAKNTVYLQMNSLKPEDTAVYYCNADRVRTAVYSYVYAYGIMNYWGQGTQVTVSS | low polyreactivity
12 | QVQLVESGGGLVQAGGSLRLSCAASGIIFYGYAMGWYRQAPGKERELVAAIDSGVSTNYADSVKGRFTISRDNAKNTVYLQMNSLKPEDTAVYYCAVQPWTRDNGYDYWGQGTQVTVSS | low polyreactivity
13 | QVQLVESGGGLVQAGGSLRLSCAASGIIFYGYAMGWYRQAPGKERELVAAISRSGGSTYYADSVKGRFTISRDNAKNTVYLQMNSLKPEDTAVYYCAAVAYPGKGNRGNYDYWGQGTQVTVSS | high polyreactivity
14 | QVQLVESGGGLVQAGGSLRLSCAASGIIFYHNALGWYRQAPGKERELVASITEIGGSTYYADSVKGRFTISRDNEKNTVYLQMNSLKPEDTAVYYCARDWRNKWFGYWGLGTQVTVSS | low polyreactivity
15 | QVQLVESGGGLVQAGGSLRLSCAASGIIFYHNAMGWYRQAPGKERELVASITEIGGSTYYADSVKGRFTISRDNAKNTVYILMNSLKPEDTAVYYCAAGTLTSFSRYDYWGQGTQVTVSS | low polyreactivity
16 | QVQLVESGGGLVQAGGSLRLSCAASGIIFYINAMGWYRQAPGKERELFADISSGDRTYYADSVKGRFTISRDNAKNTVYLQMNSLKPEDTAVYYCAAESYSGFVAGHTSLDDYWGQGTQVTVSS | low polyreactivity
17 | QVQLVESGGGLVQAGGSLRLSCAASGIIFYIYAMGWYRQAPGKETELVASISFSGTSTYYADSVKGRFTISRDNAKNTVYLQLHSLKPEDTAVYYCNAQTNRPWGWPIGYDYWGQGTQVTVSS | low polyreactivity
